Molecular target: Dnmt3a-CD (mouse (murine)) (UniProt O88508)
Test: competition (inhibition of 30Uf/30Df methylation)
Settings: 20 mM HEPES-NaOH pH 7.5, 100 mM KCl, 1 mM EDTA, 1 mM DTT, 100 uM AdoHcy, 10 nM DNA (60 nM for PWWP); FP temperature not stated; methylation competition at 37 C …

Sequence of Dnmt3a-CD (mouse (murine)) (O88508 630-908): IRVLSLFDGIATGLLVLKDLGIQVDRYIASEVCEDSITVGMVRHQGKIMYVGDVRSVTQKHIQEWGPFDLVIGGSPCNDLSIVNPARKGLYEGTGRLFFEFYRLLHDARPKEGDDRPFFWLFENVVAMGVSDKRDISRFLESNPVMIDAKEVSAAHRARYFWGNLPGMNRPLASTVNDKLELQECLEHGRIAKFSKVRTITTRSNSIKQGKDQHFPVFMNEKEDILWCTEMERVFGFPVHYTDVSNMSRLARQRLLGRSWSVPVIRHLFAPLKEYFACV

TGGGGAGGGTGAGGAGTGTGGGGAAGG [27G4-mut] was tested, and the IC50 was 1100 nM.

— article PMC10779317
